# Positions of bridges follow the written chain, without caps; N, C: chain ends. Non-standard residues stand in square brackets, D forms with d. No end group written: not given here. *: point of attachment. Acetyl(2-(4-imidazolyl)) = O=C(Cc1c[nH]cn1)*; Aib = CC(C)(N)C(=O)O
# T1: human GIP receptor (human, UniProt P48546 22-466)
# T1 sequence (looked up): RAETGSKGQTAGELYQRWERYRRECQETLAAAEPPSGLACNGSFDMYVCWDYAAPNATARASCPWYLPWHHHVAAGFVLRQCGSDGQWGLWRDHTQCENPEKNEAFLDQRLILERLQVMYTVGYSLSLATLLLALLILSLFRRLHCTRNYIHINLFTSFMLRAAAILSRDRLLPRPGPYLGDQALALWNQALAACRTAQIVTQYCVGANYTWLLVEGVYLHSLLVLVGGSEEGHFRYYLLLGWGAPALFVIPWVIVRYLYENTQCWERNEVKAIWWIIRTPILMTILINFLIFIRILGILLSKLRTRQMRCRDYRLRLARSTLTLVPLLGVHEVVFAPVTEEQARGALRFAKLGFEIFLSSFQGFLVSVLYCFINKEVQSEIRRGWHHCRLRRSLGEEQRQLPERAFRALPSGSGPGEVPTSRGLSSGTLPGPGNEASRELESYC
# Target: human GCG receptor (human, UniProt P47871 26-477)
# Sequence (P47871 26-477): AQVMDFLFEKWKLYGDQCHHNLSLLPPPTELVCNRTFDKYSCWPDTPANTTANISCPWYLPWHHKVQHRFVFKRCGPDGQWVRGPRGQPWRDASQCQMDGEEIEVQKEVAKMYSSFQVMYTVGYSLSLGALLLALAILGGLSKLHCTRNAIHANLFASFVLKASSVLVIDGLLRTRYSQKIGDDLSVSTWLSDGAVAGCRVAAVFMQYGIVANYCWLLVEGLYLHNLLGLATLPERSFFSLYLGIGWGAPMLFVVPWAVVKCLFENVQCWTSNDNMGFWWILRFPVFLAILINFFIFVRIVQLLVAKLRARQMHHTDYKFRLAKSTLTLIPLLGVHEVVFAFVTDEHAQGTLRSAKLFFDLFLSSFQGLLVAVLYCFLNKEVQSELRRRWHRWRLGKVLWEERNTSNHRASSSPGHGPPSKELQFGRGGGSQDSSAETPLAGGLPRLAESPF
# Experiment: cell-based or functional assay
row,Binder,In vitro activity (%) compared with native peptide: vs Glucagon [%]
1,H[Aib]EGTFTSDYSIAMDEIHQKDFVDWLLAEC (bridge 16-20; not fully specified) [triple agonist of SEQ ID NO: 54],1.4
2,H[Aib]QGTFTSDKSKYLDECAAQDFVQWLLDGGPSSGAPPPS (not fully specified) [triple agonist of SEQ ID NO: 41],< 0.1
3,H[Aib]QGTFTSDYSKYLDEKRQKEFVQWLLNTC (bridge 16-20; not fully specified) [triple agonist of SEQ ID NO: 51],2
4,H[Aib]QGTFTSDYSKYLCEKRQKEFVQWLLNGGPSSGAPPPSG (bridge 16-20) [triple agonist of SEQ ID NO: 36],0.39
5,H[Aib]QGTFTSDVSSYLDGQAAKEFIAWLVKGC (not fully specified) [triple agonist of SEQ ID NO: 1],< 0.1
6,H[Aib]QGTFTSDVSSYLLGQQQKEFIAWLVKGGGPSSGAPPPSC (not fully specified) [triple agonist of SEQ ID NO: 5],< 0.1
7,H[Aib]QGTFTSDYSKYLDEKRQKEFVQWLLDTC (bridge 16-20; not fully specified) [triple agonist of SEQ ID NO: 52],7.5
8,Y[Aib]QGTFTSDYSKYLDEKRAKEFVQWLLDHHPSSGQPPPSC (bridge 16-20; not fully specified) [triple agonist of SEQ ID NO: 42],206
9,H[Aib]QGTFTSDYSKYLDECRQKEFVQWLLNGGPSSGAPPPSG (bridge 16-20) [triple agonist of SEQ ID NO: 37],6.21
10,H[Aib]QGTFTSDYSKYLDEKRQKEFVNWLLAQC (bridge 16-20) [triple agonist of SEQ ID NO: 56],4.9
11,Y[Aib]QGTFTSDYSKYLDEKRAKEFVQWLLDHHCSSGQPPPS (bridge 16-20; not fully specified) [triple agonist of SEQ ID NO: 43],88.4
12,HGQGTFTSDCSKQLDGQAAQEFVAWLLAGGPSSGAPPPS (ends and bridges not checked) [triple agonist of SEQ ID NO: 44],< 0.1
13,HGQGTFTSDCSKYMDGQAAQDFVAWLLAGGPSSGAPPPS (ends and bridges not checked) [triple agonist of SEQ ID NO: 45],< 0.1
14,HGQGTFTSDCSKYLDGQRAQDFVNWLLAGGPSSGAPPPS (ends and bridges not checked) [triple agonist of SEQ ID NO: 48],< 0.1
15,HGQGTFTSDCSKYLDEQHAQEFVAWLLAGGPSSGAPPPS (ends and bridges not checked) [triple agonist of SEQ ID NO: 46],< 0.1
16,HGQGTFTSDCSKYLDGQRAQEFVAWLLAGGPSSGAPPPS (ends and bridges not checked) [triple agonist of SEQ ID NO: 47],< 0.1
17,"H[Aib]QGTFTSDYSKYLDGQHAQCFVAWLLAGGGPSSGAPPPS (also: ring from underlined residues, positions not shown) [triple agonist of SEQ ID NO: 39]",0.53
18,H[Aib]QGTFTSDYSKYLDEKRAKEFVQWLLDHHPSSGQPPPSC (bridge 16-20; not fully specified) [triple agonist of SEQ ID NO: 50],50.5
19,H[Aib]QGTFTSDVSSYLDGQAAKEFVAWLLKGC (not fully specified) [triple agonist of SEQ ID NO: 6],< 0.1
20,H[Aib]QGTFTSDYSIAMDEIHQKDFVNWLLNTKC (bridge 16-20; not fully specified) [triple agonist of SEQ ID NO: 35],< 0.1
21,H[Aib]QGTFTSDYSKYLDEKRQKEFVNWLLAQKC (bridge 16-20; not fully specified) [triple agonist of SEQ ID NO: 34],0.92
22,H[Aib]QGTFTSDVSSYLLGQQQKEFIAWLVKGC (not fully specified) [triple agonist of SEQ ID NO: 4],< 0.1
23,{Acetyl(2-(4-imidazolyl))}-[Aib]QGTFTSDYSICMDEIHQKDFVNWLLNTK (bridge 15-19; not fully specified) [triple agonist of SEQ ID NO: 49],< 0.1
24,H[Aib]QGTFTSDKSKYLDERACQDFVQWLLDGGPSSGAPPPS (not fully specified) [triple agonist of SEQ ID NO: 40],< 0.1

# Target: human GLP-1 receptor (human, UniProt P43220 24-463)
# Experiment: cell-based or functional assay
row,Binder,In vitro activity (%) compared with native peptide: vs GLP-1 [%]
1,H[Aib]EGTFTSDYSIAMDEIHQKDFVDWLLAEC (bridge 16-20; not fully specified) [triple agonist of SEQ ID NO: 54],30.6
2,H[Aib]QGTFTSDKSKYLDECAAQDFVQWLLDGGPSSGAPPPS (not fully specified) [triple agonist of SEQ ID NO: 41],34.3
3,H[Aib]QGTFTSDYSKYLDEKRQKEFVQWLLNTC (bridge 16-20; not fully specified) [triple agonist of SEQ ID NO: 51],14.4
4,H[Aib]QGTFTSDYSKYLCEKRQKEFVQWLLNGGPSSGAPPPSG (bridge 16-20) [triple agonist of SEQ ID NO: 36],37.4
5,H[Aib]QGTFTSDVSSYLDGQAAKEFIAWLVKGC (not fully specified) [triple agonist of SEQ ID NO: 1],3.2
6,"{Acetyl(2-(4-imidazolyl))}-[Aib]QGTFTSDKSSYLDERAAQDFVQWLLDGGPSSGAPPPSS (not fully specified; also: ring from underlined residues, positions not shown) [triple agonist of SEQ ID NO: 38]",2.3
7,H[Aib]QGTFTSDVSSYLLGQQQKEFIAWLVKGGGPSSGAPPPSC (not fully specified) [triple agonist of SEQ ID NO: 5],42.1
8,H[Aib]QGTFTSDYSKYLDEKRQKEFVQWLLDTC (bridge 16-20; not fully specified) [triple agonist of SEQ ID NO: 52],44.1
9,Y[Aib]QGTFTSDYSKYLDEKRAKEFVQWLLDHHPSSGQPPPSC (bridge 16-20; not fully specified) [triple agonist of SEQ ID NO: 42],33.9
10,H[Aib]QGTFTSDYSKYLDECRQKEFVQWLLNGGPSSGAPPPSG (bridge 16-20) [triple agonist of SEQ ID NO: 37],236
11,H[Aib]QGTFTSDYSKYLDEKRQKEFVNWLLAQC (bridge 16-20) [triple agonist of SEQ ID NO: 56],57.9
12,Y[Aib]QGTFTSDYSKYLDEKRAKEFVQWLLDHHCSSGQPPPS (bridge 16-20; not fully specified) [triple agonist of SEQ ID NO: 43],12.6
13,HGQGTFTSDCSKQLDGQAAQEFVAWLLAGGPSSGAPPPS (ends and bridges not checked) [triple agonist of SEQ ID NO: 44],1.3
14,HGQGTFTSDCSKYMDGQAAQDFVAWLLAGGPSSGAPPPS (ends and bridges not checked) [triple agonist of SEQ ID NO: 45],6.6
15,HGQGTFTSDCSKYLDGQRAQDFVNWLLAGGPSSGAPPPS (ends and bridges not checked) [triple agonist of SEQ ID NO: 48],1.5
16,HGQGTFTSDCSKYLDEQHAQEFVAWLLAGGPSSGAPPPS (ends and bridges not checked) [triple agonist of SEQ ID NO: 46],1.4
17,HGQGTFTSDCSKYLDGQRAQEFVAWLLAGGPSSGAPPPS (ends and bridges not checked) [triple agonist of SEQ ID NO: 47],2.4
18,"H[Aib]QGTFTSDYSKYLDGQHAQCFVAWLLAGGGPSSGAPPPS (also: ring from underlined residues, positions not shown) [triple agonist of SEQ ID NO: 39]",13.9
19,H[Aib]QGTFTSDYSKYLDEKRAKEFVQWLLDHHPSSGQPPPSC (bridge 16-20; not fully specified) [triple agonist of SEQ ID NO: 50],67.4
20,H[Aib]QGTFTSDVSSYLDGQAAKEFVAWLLKGC (not fully specified) [triple agonist of SEQ ID NO: 6],17
21,H[Aib]QGTFTSDYSIAMDEIHQKDFVNWLLNTKC (bridge 16-20; not fully specified) [triple agonist of SEQ ID NO: 35],7.5
22,H[Aib]QGTFTSDYSKYLDEKRQKEFVNWLLAQKC (bridge 16-20; not fully specified) [triple agonist of SEQ ID NO: 34],19.1
23,H[Aib]QGTFTSDVSSYLLGQQQKEFIAWLVKGC (not fully specified) [triple agonist of SEQ ID NO: 4],8.5
24,{Acetyl(2-(4-imidazolyl))}-[Aib]QGTFTSDYSICMDEIHQKDFVNWLLNTK (bridge 15-19; not fully specified) [triple agonist of SEQ ID NO: 49],29.8
25,H[Aib]QGTFTSDKSKYLDERACQDFVQWLLDGGPSSGAPPPS (not fully specified) [triple agonist of SEQ ID NO: 40],75.2

# Target: T1, human GIP receptor
# Experiment: cell-based or functional assay
row,Binder,In vitro activity (%) compared with native peptide: vs GIP [%]
1,H[Aib]EGTFTSDYSIAMDEIHQKDFVDWLLAEC (bridge 16-20; not fully specified) [triple agonist of SEQ ID NO: 54],0.1
2,H[Aib]QGTFTSDKSKYLDECAAQDFVQWLLDGGPSSGAPPPS (not fully specified) [triple agonist of SEQ ID NO: 41],< 0.1
3,H[Aib]QGTFTSDYSKYLDEKRQKEFVQWLLNTC (bridge 16-20; not fully specified) [triple agonist of SEQ ID NO: 51],0.1
4,H[Aib]QGTFTSDYSKYLCEKRQKEFVQWLLNGGPSSGAPPPSG (bridge 16-20) [triple agonist of SEQ ID NO: 36],0.2
5,H[Aib]QGTFTSDVSSYLDGQAAKEFIAWLVKGC (not fully specified) [triple agonist of SEQ ID NO: 1],< 0.1
6,H[Aib]QGTFTSDVSSYLLGQQQKEFIAWLVKGGGPSSGAPPPSC (not fully specified) [triple agonist of SEQ ID NO: 5],< 0.1
7,H[Aib]QGTFTSDYSKYLDEKRQKEFVQWLLDTC (bridge 16-20; not fully specified) [triple agonist of SEQ ID NO: 52],0.3
8,Y[Aib]QGTFTSDYSKYLDEKRAKEFVQWLLDHHPSSGQPPPSC (bridge 16-20; not fully specified) [triple agonist of SEQ ID NO: 42],7.8
9,H[Aib]QGTFTSDYSKYLDECRQKEFVQWLLNGGPSSGAPPPSG (bridge 16-20) [triple agonist of SEQ ID NO: 37],2.2
10,H[Aib]QGTFTSDYSKYLDEKRQKEFVNWLLAQC (bridge 16-20) [triple agonist of SEQ ID NO: 56],0.8
11,Y[Aib]QGTFTSDYSKYLDEKRAKEFVQWLLDHHCSSGQPPPS (bridge 16-20; not fully specified) [triple agonist of SEQ ID NO: 43],3.7
12,HGQGTFTSDCSKQLDGQAAQEFVAWLLAGGPSSGAPPPS (ends and bridges not checked) [triple agonist of SEQ ID NO: 44],< 0.1
13,HGQGTFTSDCSKYMDGQAAQDFVAWLLAGGPSSGAPPPS (ends and bridges not checked) [triple agonist of SEQ ID NO: 45],< 0.1
14,HGQGTFTSDCSKYLDGQRAQDFVNWLLAGGPSSGAPPPS (ends and bridges not checked) [triple agonist of SEQ ID NO: 48],< 0.1
15,HGQGTFTSDCSKYLDEQHAQEFVAWLLAGGPSSGAPPPS (ends and bridges not checked) [triple agonist of SEQ ID NO: 46],< 0.1
16,HGQGTFTSDCSKYLDGQRAQEFVAWLLAGGPSSGAPPPS (ends and bridges not checked) [triple agonist of SEQ ID NO: 47],< 0.1
17,"H[Aib]QGTFTSDYSKYLDGQHAQCFVAWLLAGGGPSSGAPPPS (also: ring from underlined residues, positions not shown) [triple agonist of SEQ ID NO: 39]",< 0.1
18,H[Aib]QGTFTSDYSKYLDEKRAKEFVQWLLDHHPSSGQPPPSC (bridge 16-20; not fully specified) [triple agonist of SEQ ID NO: 50],2.7
19,H[Aib]QGTFTSDVSSYLDGQAAKEFVAWLLKGC (not fully specified) [triple agonist of SEQ ID NO: 6],< 0.1
20,H[Aib]QGTFTSDYSIAMDEIHQKDFVNWLLNTKC (bridge 16-20; not fully specified) [triple agonist of SEQ ID NO: 35],1.3
21,H[Aib]QGTFTSDYSKYLDEKRQKEFVNWLLAQKC (bridge 16-20; not fully specified) [triple agonist of SEQ ID NO: 34],0.6
22,H[Aib]QGTFTSDVSSYLLGQQQKEFIAWLVKGC (not fully specified) [triple agonist of SEQ ID NO: 4],< 0.1
23,{Acetyl(2-(4-imidazolyl))}-[Aib]QGTFTSDYSICMDEIHQKDFVNWLLNTK (bridge 15-19; not fully specified) [triple agonist of SEQ ID NO: 49],3.3
24,H[Aib]QGTFTSDKSKYLDERACQDFVQWLLDGGPSSGAPPPS (not fully specified) [triple agonist of SEQ ID NO: 40],< 0.1

# From patent publication US20230372448A1, “THERAPEUTIC USE OF LONG-ACTING CONJUGATE OF TRIPLE AGONIST ACTING ON ALL OF GLUCAGON, GLP-1 AND GIP RECEPTORS AGAINST MULTIPLE SCLEROSIS” (HANMI PHARM. CO. ,LTD., priority 2020, published 2023)
